Test results: PMC2719355 (The Journal of Biological Chemistry, 2009)

Molecular target: the molecule itself
Assay: mass spectrometry

B1: recombinant full-length human butyrylcholinesterase, usual form (rBChE-U) (enzyme)
chain: EDDIIIATKNGKVRGMNLTVFGGTVTAFLGIPYAQPPLGRLRFKKPQSLTKWSDIWNATKYANSCCQNIDQSFPGFHGSEMWNPNTDLSEDCLYLNVWIPAPKPKNATVLIWIYGGGFQTGTSSLHVYDGKFLARVERVIVVSMNYRVGALGFLALPGNPEAPGNMGLFDQQLALQWVQKNIAAFGGNPKSVTLFGESAGAASVSLHLLSPGSHSLFTRAILQSGSFNAPWAVTSLYEARNRTLNLAKLTGCSRENETEIIKCLRNKDPQEILLNEAFVVPYGTPLSVNFGPTVDGDFLTDMPDILLELGQFKKTQILVGVNKDEGTAFLVYGAPGFSKDNNSIITRKEFQEGLKIFFPGVSEFGKESILFHYTDWVDDQRPENYREALGDVVGDYNFICPALEFTKKFSEWGNNAFFYYFEHRSSKLPWPEWMGVMHGYEIEFVFGLPLERRDNYTKAEEILSRSIVKRWANFAKYGNPNETQNNSTSWPVFKSTEQKYLTLNTESTRIMTKLRAQQCRFWTSFFPKVLEMTGNIDEAEWEWKAGFHRWNNYMMDWKNQFNDYTSKKESCVGL
In the case of B1, the “stoichiometry N” value is reported as 2.
